Source: the RNAGym collection of RNA variant scans (doi:10.1093/molbev/msab373)

B1: Azoarcus group I ribozyme (parent)
chain: GUGCCUUGCGCCGGGAAACCACGCAAGGGAUGGUGUCAAAUUCGGCGAAACCUAAGCGCCCGCCCGGGCGUAUGGCAACGCCGAGCCAAGCUUCGGCGCCUGCGCCGAUGAAGGUGUAGAGACUAGACGGCACCCACCUAAGGCAAACGCUAUGGUGAAGGCAUAGUCCAGGGAGUGGCGAAAGUCACACAAACCGG

Variants of: B1
Assay: reverse-splicing fitness (ratio to wild type); higher = more active; in vitro selection; Mg2+ level not given
Procedure, shortened: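 An in vitro group I ribozyme library with randomized positions was T7-transcribed and gel-purified. In triplicate, 10 pmol RNA in EPPS pH 7.5 was reacted with 50 pmoles of a 30-nt RNA substrate for 1 h at 37 °C across several added MgCl2 levels (1–48 mM), then stopped with EDTA. Products were reverse transcribed from a substrate-complementary primer, PCR-amplified and sequenced (HiSeq 4000). Fitness is a variant's read proportion after selection over that before, normalised to wild type.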

For C82G A111C A145G U176G, which reverse-splicing fitness is on record?
The reverse-splicing fitness was 0.0463.

With C82G A111C A145G U176A as the variant, how does the reverse-splicing fitness read?
Its reverse-splicing fitness is 0.129.

For C82G A111C A145G U176C, which reverse-splicing fitness is on record?
The reverse-splicing fitness was 0.147.

For C82G A111G A120C A145C C150U C169A, which reverse-splicing fitness is on record?
Its reverse-splicing fitness is 0.00918.

Which reverse-splicing fitness does the source give for C82G A111G A120C A145C C150U C169G here?
The reverse-splicing fitness was 0.00849.

Which reverse-splicing fitness does the source give for C82G A111G A120C A145C C150U C169U here?
Its reverse-splicing fitness is 0.0103.

For C82G A111C A145U U176G, which reverse-splicing fitness is on record?
Its reverse-splicing fitness is 0.0645.

Which reverse-splicing fitness does the source give for C82G A111C A145U U176A here?
Its reverse-splicing fitness is 0.138.

Which reverse-splicing fitness does the source give for C82G A111C A145U U176C here?
The reverse-splicing fitness was 0.136.

For C82G A111C A145U C150G C169A U176A, which reverse-splicing fitness is on record?
Its reverse-splicing fitness is 0.00956.

For C82G A111C A145U C150G C169A U176G, which reverse-splicing fitness is on record?
Its reverse-splicing fitness is 0.00734.

Which reverse-splicing fitness does the source give for C82G A111C A145U C150G C169A U176C here?
Its reverse-splicing fitness is 0.0126.

Which reverse-splicing fitness does the source give for C82G A111G A120C A145C C150A C169A U176A here?
Its reverse-splicing fitness is 0.0183.

With C82G A111G A120C A145C C150A C169A U176C as the variant, how does the reverse-splicing fitness read?
The reverse-splicing fitness was 0.00849.

Which reverse-splicing fitness does the source give for C82G A111G A120C A145C C150A C169A U176G here?
Its reverse-splicing fitness is 0.00653.

For C82G A111C A145U C150A C169U U176A, which reverse-splicing fitness is on record?
The reverse-splicing fitness was 0.0139.

For C82G A111C A145U C150A C169U U176C, which reverse-splicing fitness is on record?
Its reverse-splicing fitness is 0.014.

Which reverse-splicing fitness does the source give for C82G A111C A145U C150A C169U U176G here?
The reverse-splicing fitness was 0.00816.

Which reverse-splicing fitness does the source give for C82G A111C C150A C169A U176C here?
Its reverse-splicing fitness is 0.0158.

For C82G A111C C150A C169A U176G, which reverse-splicing fitness is on record?
Its reverse-splicing fitness is 0.00921.

Which reverse-splicing fitness does the source give for C82G A111C C150A C169A U176A here?
The reverse-splicing fitness was 0.0183.

For C82G A111C A145G C150U U176A, which reverse-splicing fitness is on record?
The reverse-splicing fitness was 0.0896.

For C82G A111C A145G C150U U176G, which reverse-splicing fitness is on record?
The reverse-splicing fitness was 0.0306.

With C82G A111C A145G C150U U176C as the variant, how does the reverse-splicing fitness read?
The reverse-splicing fitness was 0.11.

For C82G A111G A120C A145C C169G U176G, which reverse-splicing fitness is on record?
Its reverse-splicing fitness is 0.0055.

Which reverse-splicing fitness does the source give for C82G A111G A120C A145C C169G U176C here?
The reverse-splicing fitness was 0.0182.

With C82G A111G A120C A145C C169G U176A as the variant, how does the reverse-splicing fitness read?
Its reverse-splicing fitness is 0.0254.

For C82G A111C A145G C150U C169G U176A, which reverse-splicing fitness is on record?
The reverse-splicing fitness was 0.0107.

With C82G A111C A145G C150U C169G U176G as the variant, how does the reverse-splicing fitness read?
Its reverse-splicing fitness is 0.00611.

Which reverse-splicing fitness does the source give for C82G A111C A145G C150U C169G U176C here?
Its reverse-splicing fitness is 0.0159.

With C82G A111G A120C A145C C150G C169G U176A as the variant, how does the reverse-splicing fitness read?
Its reverse-splicing fitness is 0.0112.

For C82G A111G A120C A145C C150G C169G U176G, which reverse-splicing fitness is on record?
Its reverse-splicing fitness is 0.006.

Which reverse-splicing fitness does the source give for C82G A111G A120C A145C C150G C169G U176C here?
The reverse-splicing fitness was 0.0101.

With C82G A111C C150U C169U U176G as the variant, how does the reverse-splicing fitness read?
The reverse-splicing fitness was 0.00854.

For C82G A111C C150U C169U U176A, which reverse-splicing fitness is on record?
Its reverse-splicing fitness is 0.015.

Which reverse-splicing fitness does the source give for C82G A111C C150U C169U U176C here?
Its reverse-splicing fitness is 0.0142.

With C82G A111C C150A C169U U176G as the variant, how does the reverse-splicing fitness read?
Its reverse-splicing fitness is 0.0093.

For C82G A111C C150A C169U U176C, which reverse-splicing fitness is on record?
The reverse-splicing fitness was 0.0178.

With C82G A111C C150A C169U U176A as the variant, how does the reverse-splicing fitness read?
The reverse-splicing fitness was 0.0193.

For C82G A111C C150U C169A, which reverse-splicing fitness is on record?
Its reverse-splicing fitness is 0.0113.

Which reverse-splicing fitness does the source give for C82G A111C C150U C169G here?
The reverse-splicing fitness was 0.00815.

With C82G A111C C150U C169U as the variant, how does the reverse-splicing fitness read?
The reverse-splicing fitness was 0.0125.

With C82G A111G A120C A145G C150A C169A U176C as the variant, how does the reverse-splicing fitness read?
The reverse-splicing fitness was 0.0227.

For C82G A111G A120C A145G C150A C169A U176A, which reverse-splicing fitness is on record?
The reverse-splicing fitness was 0.0208.

With C82G A111G A120C A145G C150A C169A U176G as the variant, how does the reverse-splicing fitness read?
Its reverse-splicing fitness is 0.00804.

With C82G A111C C150U C169G U176A as the variant, how does the reverse-splicing fitness read?
The reverse-splicing fitness was 0.0133.

For C82G A111C C150U C169G U176C, which reverse-splicing fitness is on record?
Its reverse-splicing fitness is 0.0174.

For C82G A111C C150U C169G U176G, which reverse-splicing fitness is on record?
The reverse-splicing fitness was 0.00784.

For C82G A111C A145G C150G U176A, which reverse-splicing fitness is on record?
Its reverse-splicing fitness is 0.0138.

With C82G A111C A145G C150G U176G as the variant, how does the reverse-splicing fitness read?
Its reverse-splicing fitness is 0.00754.

Which reverse-splicing fitness does the source give for C82G A111C A145G C150G U176C here?
Its reverse-splicing fitness is 0.0214.

For C82G A111C A145U C169U U176A, which reverse-splicing fitness is on record?
The reverse-splicing fitness was 0.0168.

For C82G A111C A145U C169U U176C, which reverse-splicing fitness is on record?
Its reverse-splicing fitness is 0.0153.

With C82G A111C A145U C169U U176G as the variant, how does the reverse-splicing fitness read?
Its reverse-splicing fitness is 0.00693.

With C82G A111C A145U C150A C169A as the variant, how does the reverse-splicing fitness read?
Its reverse-splicing fitness is 0.00994.

For C82G A111C A145U C150A C169U, which reverse-splicing fitness is on record?
The reverse-splicing fitness was 0.0112.

With C82G A111C A145U C150A C169G as the variant, how does the reverse-splicing fitness read?
The reverse-splicing fitness was 0.0077.

With C82G A111C A145U C150U C169U as the variant, how does the reverse-splicing fitness read?
The reverse-splicing fitness was 0.0121.

With C82G A111C A145U C150U C169A as the variant, how does the reverse-splicing fitness read?
Its reverse-splicing fitness is 0.00854.

Which reverse-splicing fitness does the source give for C82G A111C A145U C150U C169G here?
Its reverse-splicing fitness is 0.00905.

Which reverse-splicing fitness does the source give for C82G A111C C150G C169A U176G here?
Its reverse-splicing fitness is 0.00647.

For C82G A111C C150G C169A U176C, which reverse-splicing fitness is on record?
The reverse-splicing fitness was 0.0108.

For C82G A111C C150G C169A U176A, which reverse-splicing fitness is on record?
The reverse-splicing fitness was 0.00955.

Which reverse-splicing fitness does the source give for C82G A111G A120C A145C C150G C169A U176G here?
Its reverse-splicing fitness is 0.00627.

For C82G A111G A120C A145C C150G C169A U176C, which reverse-splicing fitness is on record?
Its reverse-splicing fitness is 0.0103.

Which reverse-splicing fitness does the source give for C82G A111G A120C A145C C150G C169A U176A here?
The reverse-splicing fitness was 0.0108.

With C82G A111C A145U C150U U176C as the variant, how does the reverse-splicing fitness read?
The reverse-splicing fitness was 0.0883.

With C82G A111C A145U C150U U176A as the variant, how does the reverse-splicing fitness read?
The reverse-splicing fitness was 0.0841.

Which reverse-splicing fitness does the source give for C82G A111C A145U C150U U176G here?
Its reverse-splicing fitness is 0.0297.

For C82G A111C A145C C169U U176C, which reverse-splicing fitness is on record?
Its reverse-splicing fitness is 0.016.

Which reverse-splicing fitness does the source give for C82G A111C A145C C169U U176A here?
Its reverse-splicing fitness is 0.018.

With C82G A111C A145C C169U U176G as the variant, how does the reverse-splicing fitness read?
The reverse-splicing fitness was 0.00741.

Which reverse-splicing fitness does the source give for C82G A111C A145C C150U C169G U176C here?
Its reverse-splicing fitness is 0.0189.

For C82G A111C A145C C150U C169G U176A, which reverse-splicing fitness is on record?
The reverse-splicing fitness was 0.0245.

With C82G A111C A145C C150U C169G U176G as the variant, how does the reverse-splicing fitness read?
Its reverse-splicing fitness is 0.00873.

For C82G A111G A120C A145C C150U C169U U176C, which reverse-splicing fitness is on record?
The reverse-splicing fitness was 0.0121.

With C82G A111G A120C A145C C150U C169U U176G as the variant, how does the reverse-splicing fitness read?
The reverse-splicing fitness was 0.00553.

Which reverse-splicing fitness does the source give for C82G A111G A120C A145C C150U C169U U176A here?
The reverse-splicing fitness was 0.013.

Which reverse-splicing fitness does the source give for C82G A111C A145U C169U here?
The reverse-splicing fitness was 0.0133.

Which reverse-splicing fitness does the source give for C82G A111C A145U C169A here?
Its reverse-splicing fitness is 0.00813.

With C82G A111C A145U C169G as the variant, how does the reverse-splicing fitness read?
The reverse-splicing fitness was 0.0102.

For C82G A111G A120C A145G C150G C169U, which reverse-splicing fitness is on record?
The reverse-splicing fitness was 0.00987.

For C82G A111G A120C A145G C150G C169A, which reverse-splicing fitness is on record?
The reverse-splicing fitness was 0.00978.

For C82G A111G A120C A145G C150G C169G, which reverse-splicing fitness is on record?
The reverse-splicing fitness was 0.00764.
